# Experimental data taken from PMC6555819, “Comprehensive study of nuclear receptor DNA binding provides a revised framework for understanding receptor specificity”.
# Tests used:
# [1] = target: PPARa:RXRa (Homo sapiens, UniProt Q07869;P19793 full;full); test: no ligand; PBM; 270 nM : 90 nM RXRa; PBS pH 7.4, 2% milk, 0.02% Triton X-100, 1 mM DTT, BSA, 0.4 mg/ml salmon testes DNA; conditions: tags: GST kept;His cleaved; copies: 1;1; label: surface-attached array probe
# How it was run: (§1)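 Regression normalization was applied to scanned fluorescence from custom Agilent 4×180K protein-binding microarrays. Before scanning, arrays were incubated 1 h with ligand-free nuclear receptor dimers, and binding was detected with antibodies against each partner (one per run). Binding z-scores use the random background probes as reference.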
# [2] = target: LXRa:RXRa (Homo sapiens, UniProt Q13133;P19793 full;full); test: as above; conditions: tags: His kept;His cleaved; copies: 1;1; label: surface-attached array probe
# How it was run: as §1
# [3] = target: FXR:RXRa (Homo sapiens, UniProt Q96RI1;P19793 full;full); test: as above; conditions: tags: His kept;His cleaved; copies: 1;1; label: surface-attached array probe
# How it was run: as §1
# [4] = target: RARb:RXRa (Homo sapiens, UniProt P10826;P19793 full;full); test: as above; conditions: tags: His kept;His cleaved; copies: 1;1; label: surface-attached array probe
# How it was run: as §1
# [5] = target: LXRb:RXRa (Homo sapiens, UniProt P55055;P19793 full;full); test: as above; conditions: tags: His kept;His cleaved; copies: 1;1; label: surface-attached array probe
# How it was run: as §1
# [6] = target: RARg:RXRa (Homo sapiens, UniProt P13631;P19793 full;full); test: as above; conditions: tags: His kept;His cleaved; copies: 1;1; label: surface-attached array probe
# How it was run: as §1
# [7] = target: RXRa (Homo sapiens, UniProt P19793); test: no ligand; PBM; 180 nM; PBS pH 7.4, 2% milk, 0.02% Triton X-100, 1 mM DTT, BSA, 0.4 mg/ml salmon testes DNA; conditions: tags: His cleaved; chain copies: 2; label: surface-attached array probe
# [8] = target: VDR:RXRa (Homo sapiens, UniProt P11473;P19793 full;full); test: no ligand; PBM; 270 nM : 90 nM RXRa; PBS pH 7.4, 2% milk, 0.02% Triton X-100, 1 mM DTT, BSA, 0.4 mg/ml salmon testes DNA; conditions: tags: His kept;His cleaved; copies: 1;1; label: surface-attached array probe
# How it was run: as §1
# Chain of LXRa:RXRa (Q13133 whole entry, chain 1 of 2): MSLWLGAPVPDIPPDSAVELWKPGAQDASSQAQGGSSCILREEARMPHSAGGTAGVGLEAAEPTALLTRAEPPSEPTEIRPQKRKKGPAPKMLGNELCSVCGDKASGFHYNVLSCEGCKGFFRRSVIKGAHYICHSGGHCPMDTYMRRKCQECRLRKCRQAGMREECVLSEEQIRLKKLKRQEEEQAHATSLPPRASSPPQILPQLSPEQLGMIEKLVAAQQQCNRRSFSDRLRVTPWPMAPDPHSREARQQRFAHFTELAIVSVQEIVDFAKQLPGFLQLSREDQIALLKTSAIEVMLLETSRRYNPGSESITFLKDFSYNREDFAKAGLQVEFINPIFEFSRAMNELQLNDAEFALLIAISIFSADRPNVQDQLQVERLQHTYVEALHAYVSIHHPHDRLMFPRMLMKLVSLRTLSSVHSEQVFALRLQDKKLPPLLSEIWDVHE
# Chain of LXRa:RXRa (P19793 whole entry, chain 2 of 2): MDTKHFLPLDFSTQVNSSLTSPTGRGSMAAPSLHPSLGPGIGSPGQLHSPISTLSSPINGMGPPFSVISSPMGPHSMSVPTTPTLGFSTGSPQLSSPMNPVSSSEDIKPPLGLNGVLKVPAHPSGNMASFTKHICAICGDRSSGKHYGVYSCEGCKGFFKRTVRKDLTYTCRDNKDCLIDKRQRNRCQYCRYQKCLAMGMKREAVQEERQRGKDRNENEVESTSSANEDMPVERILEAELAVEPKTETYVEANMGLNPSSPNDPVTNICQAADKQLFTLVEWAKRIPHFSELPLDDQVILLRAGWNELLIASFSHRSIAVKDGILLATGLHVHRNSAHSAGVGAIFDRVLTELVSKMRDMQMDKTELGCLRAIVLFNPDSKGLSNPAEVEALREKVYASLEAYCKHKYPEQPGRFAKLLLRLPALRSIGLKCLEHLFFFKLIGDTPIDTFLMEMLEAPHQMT
# Chain of RARg:RXRa (P13631 whole entry, chain 1 of 2): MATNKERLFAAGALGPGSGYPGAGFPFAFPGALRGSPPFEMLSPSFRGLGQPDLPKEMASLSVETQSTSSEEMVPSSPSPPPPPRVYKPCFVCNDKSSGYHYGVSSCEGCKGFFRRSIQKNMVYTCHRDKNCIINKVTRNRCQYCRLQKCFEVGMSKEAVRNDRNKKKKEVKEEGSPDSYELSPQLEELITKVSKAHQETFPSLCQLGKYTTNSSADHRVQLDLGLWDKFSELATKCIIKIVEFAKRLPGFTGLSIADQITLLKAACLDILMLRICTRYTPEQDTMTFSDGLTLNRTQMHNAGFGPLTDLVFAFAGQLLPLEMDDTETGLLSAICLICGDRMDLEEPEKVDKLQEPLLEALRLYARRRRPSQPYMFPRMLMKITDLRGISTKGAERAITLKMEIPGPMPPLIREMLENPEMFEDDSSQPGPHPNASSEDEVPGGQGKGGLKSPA
# Chain of RARg:RXRa (P19793 whole entry, chain 2 of 2): as the sequence (P19793 whole entry, chain 2 of 2) above
# Chain of RXRa (P19793 whole entry): as the sequence (P19793 whole entry, chain 2 of 2) above
# Chain of LXRb:RXRa (P55055 whole entry, chain 1 of 2): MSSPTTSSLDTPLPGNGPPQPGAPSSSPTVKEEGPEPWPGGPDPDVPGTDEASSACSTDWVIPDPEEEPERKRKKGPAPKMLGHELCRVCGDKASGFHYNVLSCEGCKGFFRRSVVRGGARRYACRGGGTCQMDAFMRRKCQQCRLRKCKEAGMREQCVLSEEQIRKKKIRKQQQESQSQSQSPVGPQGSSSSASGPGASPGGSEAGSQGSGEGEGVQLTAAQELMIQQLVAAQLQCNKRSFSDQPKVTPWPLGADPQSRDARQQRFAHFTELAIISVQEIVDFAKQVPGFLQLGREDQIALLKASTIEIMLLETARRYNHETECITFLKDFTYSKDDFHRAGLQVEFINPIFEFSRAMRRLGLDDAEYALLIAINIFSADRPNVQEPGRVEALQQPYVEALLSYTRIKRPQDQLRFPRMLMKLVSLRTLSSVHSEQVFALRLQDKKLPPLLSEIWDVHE
# Chain of LXRb:RXRa (P19793 whole entry, chain 2 of 2): as the sequence (P19793 whole entry, chain 2 of 2) above
# Chain of VDR:RXRa (P11473 whole entry, chain 1 of 2): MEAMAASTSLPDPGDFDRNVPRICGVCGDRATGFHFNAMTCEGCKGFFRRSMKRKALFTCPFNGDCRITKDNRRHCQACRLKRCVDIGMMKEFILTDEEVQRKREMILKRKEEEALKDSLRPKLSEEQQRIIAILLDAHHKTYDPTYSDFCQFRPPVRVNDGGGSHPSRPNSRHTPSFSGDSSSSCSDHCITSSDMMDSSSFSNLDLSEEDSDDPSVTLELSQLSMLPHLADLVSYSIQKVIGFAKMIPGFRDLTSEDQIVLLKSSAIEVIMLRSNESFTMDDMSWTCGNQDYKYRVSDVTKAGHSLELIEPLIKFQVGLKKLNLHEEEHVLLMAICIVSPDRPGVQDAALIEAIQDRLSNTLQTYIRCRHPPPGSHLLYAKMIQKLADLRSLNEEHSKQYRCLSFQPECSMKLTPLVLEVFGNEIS
# Chain of VDR:RXRa (P19793 whole entry, chain 2 of 2): as the sequence (P19793 whole entry, chain 2 of 2) above
# Chain of RARb:RXRa (P10826 whole entry, chain 1 of 2): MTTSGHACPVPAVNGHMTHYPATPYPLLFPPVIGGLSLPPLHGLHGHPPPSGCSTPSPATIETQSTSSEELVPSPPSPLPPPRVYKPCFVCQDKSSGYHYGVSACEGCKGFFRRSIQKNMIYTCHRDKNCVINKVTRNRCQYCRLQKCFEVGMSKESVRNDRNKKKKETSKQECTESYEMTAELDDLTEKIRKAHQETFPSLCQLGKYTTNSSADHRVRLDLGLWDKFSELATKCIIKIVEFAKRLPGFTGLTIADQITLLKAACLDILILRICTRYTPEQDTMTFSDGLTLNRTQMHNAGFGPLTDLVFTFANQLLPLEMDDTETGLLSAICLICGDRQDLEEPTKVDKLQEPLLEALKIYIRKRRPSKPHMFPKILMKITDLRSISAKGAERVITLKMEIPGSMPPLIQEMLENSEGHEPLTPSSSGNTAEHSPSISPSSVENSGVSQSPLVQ
# Chain of RARb:RXRa (P19793 whole entry, chain 2 of 2): as the sequence (P19793 whole entry, chain 2 of 2) above
# Chain of PPARa:RXRa (Q07869 whole entry, chain 1 of 2): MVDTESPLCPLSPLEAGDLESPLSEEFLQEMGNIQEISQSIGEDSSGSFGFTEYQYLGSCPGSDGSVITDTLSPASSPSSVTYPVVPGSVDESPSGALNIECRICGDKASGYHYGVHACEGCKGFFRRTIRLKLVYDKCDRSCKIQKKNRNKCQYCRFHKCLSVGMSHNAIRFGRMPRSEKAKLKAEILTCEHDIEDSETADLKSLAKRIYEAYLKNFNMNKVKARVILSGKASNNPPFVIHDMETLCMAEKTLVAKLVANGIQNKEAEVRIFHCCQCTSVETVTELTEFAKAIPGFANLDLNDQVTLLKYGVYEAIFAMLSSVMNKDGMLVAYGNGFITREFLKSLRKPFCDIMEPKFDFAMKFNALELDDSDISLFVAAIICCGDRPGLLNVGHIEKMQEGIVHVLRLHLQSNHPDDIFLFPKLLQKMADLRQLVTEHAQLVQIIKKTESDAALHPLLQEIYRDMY
# Chain of PPARa:RXRa (P19793 whole entry, chain 2 of 2): as the sequence (P19793 whole entry, chain 2 of 2) above
# Chain of FXR:RXRa (Q96RI1 whole entry, chain 1 of 2): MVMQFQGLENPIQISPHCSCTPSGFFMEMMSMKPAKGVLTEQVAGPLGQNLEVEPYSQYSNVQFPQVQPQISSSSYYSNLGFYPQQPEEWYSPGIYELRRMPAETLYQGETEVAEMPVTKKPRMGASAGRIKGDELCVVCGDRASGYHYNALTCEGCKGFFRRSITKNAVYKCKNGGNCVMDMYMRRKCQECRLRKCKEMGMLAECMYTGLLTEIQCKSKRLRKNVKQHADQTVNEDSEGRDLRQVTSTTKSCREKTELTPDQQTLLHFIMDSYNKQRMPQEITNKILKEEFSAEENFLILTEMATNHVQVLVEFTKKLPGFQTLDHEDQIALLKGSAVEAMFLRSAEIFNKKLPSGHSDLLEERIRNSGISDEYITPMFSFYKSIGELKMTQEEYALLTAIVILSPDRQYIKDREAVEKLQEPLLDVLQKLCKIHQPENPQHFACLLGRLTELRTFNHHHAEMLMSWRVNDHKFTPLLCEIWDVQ
# Chain of FXR:RXRa (P19793 whole entry, chain 2 of 2): as the sequence (P19793 whole entry, chain 2 of 2) above
Binder,binding signal [1],binding signal [2],binding signal [3],binding signal [4],binding signal [5],binding signal [6],binding signal [7],binding signal [8]
NRC3_wobSeed10_DR0_G14A_o1 (dsDNA) DNA 1: GCATCGAAAGGTCAAGGTGAGTATAGAGAAAGGGAAGCGATTGACAGCGTAGAATGAAGG DNA 2: CCTTCATTCTACGCTGTCAATCGCTTCCCTTTCTCTATACTCACCTTGACCTTTCGATGC,7.41 PBM z-score against 500 random probes,7.08 PBM z-score against 500 random probes,8.27 PBM z-score against 500 random probes,6.24 PBM z-score against 500 random probes,5.9 PBM z-score against 500 random probes,7.61 PBM z-score against 500 random probes,8.13 PBM z-score against 500 random probes,–
NRC3_random_hg19_428_o1 (dsDNA) DNA 1: GCGAGATTGGAAGGCTTCCAGATGCAAGGCTGTGGCGCGATTGACAGCGTAGAATGAAGG DNA 2: CCTTCATTCTACGCTGTCAATCGCGCCACAGCCTTGCATCTGGAAGCCTTCCAATCTCGC,–,-1.14 PBM z-score against 500 random probes,–,–,-1.31 PBM z-score against 500 random probes,–,–,-1.12 PBM z-score against 500 random probes
NRC3_wobSeed101_DR4_C13T_o1 (dsDNA) DNA 1: GCCCTTACGGGTTACTCCAGGTTATAGCATCGGAGTGCGATTGACAGCGTAGAATGAAGG DNA 2: CCTTCATTCTACGCTGTCAATCGCACTCCGATGCTATAACCTGGAGTAACCCGTAAGGGC,–,8.39 PBM z-score against 500 random probes,–,–,6.25 PBM z-score against 500 random probes,–,–,–
NRC3_random_hg19_378_o1 (dsDNA) DNA 1: GCATCATCTTGCGTATGTTGATTGATGTCTCATGTGGCGATTGACAGCGTAGAATGAAGG DNA 2: CCTTCATTCTACGCTGTCAATCGCCACATGAGACATCAATCAACATACGCAAGATGATGC,–,-0.34 PBM z-score against 500 random probes,–,–,-0.13 PBM z-score against 500 random probes,0.26 PBM z-score against 500 random probes,–,–
NRC3_wobSeed98_DR4_A28C_o1 (dsDNA) DNA 1: GCACTAGTTGGTCAGCTGAGGTCACACCCAATTCGGGCGATTGACAGCGTAGAATGAAGG DNA 2: CCTTCATTCTACGCTGTCAATCGCCCGAATTGGGTGTGACCTCAGCTGACCAACTAGTGC,–,3.12 PBM z-score against 500 random probes,–,–,3.3 PBM z-score against 500 random probes,–,–,–
NRC3_wobSeed113_DR4_T12A_o1 (dsDNA) DNA 1: GCATATGTAGGATAGCTGGGGTCATTCAGACTAGGCGCGATTGACAGCGTAGAATGAAGG DNA 2: CCTTCATTCTACGCTGTCAATCGCGCCTAGTCTGAATGACCCCAGCTATCCTACATATGC,–,3.41 PBM z-score against 500 random probes,–,–,3.83 PBM z-score against 500 random probes,–,–,–
NRC3_wobSeed37_DR1_C7A_o1 (dsDNA) DNA 1: GCCGTCAAAGGTCAAAGGTCAGTGAAGAGATGACGGGCGATTGACAGCGTAGAATGAAGG DNA 2: CCTTCATTCTACGCTGTCAATCGCCCGTCATCTCTTCACTGACCTTTGACCTTTGACGGC,7.54 PBM z-score against 500 random probes,7.91 PBM z-score against 500 random probes,9.14 PBM z-score against 500 random probes,6.32 PBM z-score against 500 random probes,7.7 PBM z-score against 500 random probes,9.63 PBM z-score against 500 random probes,11 PBM z-score against 500 random probes,7.1 PBM z-score against 500 random probes
NRC3_random_hg19_29_o1 (dsDNA) DNA 1: GCGGTTGAATGCCCAGATAGTACACACACCAAGCTTGCGATTGACAGCGTAGAATGAAGG DNA 2: CCTTCATTCTACGCTGTCAATCGCAAGCTTGGTGTGTGTACTATCTGGGCATTCAACCGC,–,-0.08 PBM z-score against 500 random probes,–,-0.14 PBM z-score against 500 random probes,0.12 PBM z-score against 500 random probes,–,–,–
NRC3_random_hg19_484_o1 (dsDNA) DNA 1: GCCAGCAAACTAGGAATCAAGAAACTGAGTTCTGGCGCGATTGACAGCGTAGAATGAAGG DNA 2: CCTTCATTCTACGCTGTCAATCGCGCCAGAACTCAGTTTCTTGATTCCTAGTTTGCTGGC,-0.5 PBM z-score against 500 random probes,-0.57 PBM z-score against 500 random probes,–,–,-0.51 PBM z-score against 500 random probes,–,-0.22 PBM z-score against 500 random probes,–
NRC3_random_hg19_334_o1 (dsDNA) DNA 1: GCTGCTGACTTGCTGGTTAGAGGGAACACATTCCCAGCGATTGACAGCGTAGAATGAAGG DNA 2: CCTTCATTCTACGCTGTCAATCGCTGGGAATGTGTTCCCTCTAACCAGCAAGTCAGCAGC,–,-0.52 PBM z-score against 500 random probes,–,–,-0.46 PBM z-score against 500 random probes,–,–,–
NRC3_wobSeed73_DR3_C7A_o1 (dsDNA) DNA 1: GCCAAAATAGGTCACAGAGGTCAAAGTCCGTGCGTAGCGATTGACAGCGTAGAATGAAGG DNA 2: CCTTCATTCTACGCTGTCAATCGCTACGCACGGACTTTGACCTCTGTGACCTATTTTGGC,6.98 PBM z-score against 500 random probes,7.23 PBM z-score against 500 random probes,8.03 PBM z-score against 500 random probes,5.84 PBM z-score against 500 random probes,7.08 PBM z-score against 500 random probes,7.78 PBM z-score against 500 random probes,–,–
NRC3_wobSeed25_DR1_C7A_o1 (dsDNA) DNA 1: GCCAAAATAGGTCAAAGGTCAAAGTCGAGCCAACCAGCGATTGACAGCGTAGAATGAAGG DNA 2: CCTTCATTCTACGCTGTCAATCGCTGGTTGGCTCGACTTTGACCTTTGACCTATTTTGGC,–,7.77 PBM z-score against 500 random probes,8.93 PBM z-score against 500 random probes,6.18 PBM z-score against 500 random probes,7.8 PBM z-score against 500 random probes,9.5 PBM z-score against 500 random probes,10.9 PBM z-score against 500 random probes,7.13 PBM z-score against 500 random probes
NRC3_wobSeed130_DR5_G14A_o1 (dsDNA) DNA 1: GCCTCGAAAGGTCATGCTCAGGTGAGTATACCAAACGCGATTGACAGCGTAGAATGAAGG DNA 2: CCTTCATTCTACGCTGTCAATCGCGTTTGGTATACTCACCTGAGCATGACCTTTCGAGGC,6.66 PBM z-score against 500 random probes,7.19 PBM z-score against 500 random probes,8.36 PBM z-score against 500 random probes,5.96 PBM z-score against 500 random probes,5.85 PBM z-score against 500 random probes,7.89 PBM z-score against 500 random probes,8.8 PBM z-score against 500 random probes,–
NRC3_wobSeed121_DR5_C7A_o1 (dsDNA) DNA 1: GCCAAAATAGGTCACCGGAAGGTCAAAGTCCGCATGGCGATTGACAGCGTAGAATGAAGG DNA 2: CCTTCATTCTACGCTGTCAATCGCCATGCGGACTTTGACCTTCCGGTGACCTATTTTGGC,–,7 PBM z-score against 500 random probes,–,5.81 PBM z-score against 500 random probes,6.15 PBM z-score against 500 random probes,9.04 PBM z-score against 500 random probes,7.97 PBM z-score against 500 random probes,6.58 PBM z-score against 500 random probes
NRC3_wobSeed133_DR5_C7A_o1 (dsDNA) DNA 1: GCCGTCAAAGGTCAATGCTAGGTCAGTGAAAGCATTGCGATTGACAGCGTAGAATGAAGG DNA 2: CCTTCATTCTACGCTGTCAATCGCAATGCTTTCACTGACCTAGCATTGACCTTTGACGGC,6.56 PBM z-score against 500 random probes,6.75 PBM z-score against 500 random probes,8.38 PBM z-score against 500 random probes,6.04 PBM z-score against 500 random probes,6.22 PBM z-score against 500 random probes,8.73 PBM z-score against 500 random probes,8.08 PBM z-score against 500 random probes,–
NRC3_wobSeed120_DR4_G16T_o1 (dsDNA) DNA 1: GCCCGAGTAGGTTACTAGGGGGCATTCAGTGCGAATGCGATTGACAGCGTAGAATGAAGG DNA 2: CCTTCATTCTACGCTGTCAATCGCATTCGCACTGAATGCCCCCTAGTAACCTACTCGGGC,3.42 PBM z-score against 500 random probes,8.51 PBM z-score against 500 random probes,–,–,7.83 PBM z-score against 500 random probes,–,–,–
NRC3_wobSeed21_DR0_T11G_o1 (dsDNA) DNA 1: GCCGTCAAAGGTCAAGGTAACGTAACAGAAAGCAGCGCGATTGACAGCGTAGAATGAAGG DNA 2: CCTTCATTCTACGCTGTCAATCGCGCTGCTTTCTGTTACGTTACCTTGACCTTTGACGGC,6.99 PBM z-score against 500 random probes,6.81 PBM z-score against 500 random probes,9.02 PBM z-score against 500 random probes,6.57 PBM z-score against 500 random probes,6.12 PBM z-score against 500 random probes,7.8 PBM z-score against 500 random probes,8.42 PBM z-score against 500 random probes,–
